# Data from patent publication US20220332804A1 (CSL INNOVATION, published 2022).
# Where a chain is given by its changes, count along the chain named.
# B1: RF16-226 (antibody, human IgG4 S228P, lambda)
# heavy: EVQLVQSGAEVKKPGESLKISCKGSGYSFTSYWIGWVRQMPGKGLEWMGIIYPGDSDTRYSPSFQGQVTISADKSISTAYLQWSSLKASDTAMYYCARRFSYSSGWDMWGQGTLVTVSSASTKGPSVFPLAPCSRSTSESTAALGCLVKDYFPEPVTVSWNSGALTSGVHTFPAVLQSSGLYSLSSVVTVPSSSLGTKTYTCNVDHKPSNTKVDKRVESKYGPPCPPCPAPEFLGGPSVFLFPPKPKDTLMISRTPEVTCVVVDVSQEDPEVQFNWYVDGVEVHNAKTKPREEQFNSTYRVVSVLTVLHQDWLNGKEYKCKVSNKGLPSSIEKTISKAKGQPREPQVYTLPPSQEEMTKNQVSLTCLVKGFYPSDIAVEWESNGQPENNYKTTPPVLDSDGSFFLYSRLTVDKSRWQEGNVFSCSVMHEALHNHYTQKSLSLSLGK
# light: SYELTQPPSVSVSPGQTARITCSGDALTSKYVAWYQQKSGLAPLLVIYEDTRRPSGIPAKFSGSSSGSVATLTISGAHGDDEADYYCYSTDASGHQRVFGGGTKLTVLSQPKAAPSVTLFPPSSEELQANKATLVCLISDFYPGAVTVAWKADGSPVKAGVETTKPSKQSNNKYAASSYLSLTPEQWKSHRSYSCQVTHEGSTVEKTVAPTECS
# notes: pH-dependent anti-C2 antibody from a phage display library; also called WT
# Experiments:
# Experiment in all cases: SPR, KD relative to WT C2;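 note: biacore SPR at 37 °C, anti-C2 mAbs captured via immobilised goat anti-human IgG, C2 alanine or serine surface mutants as analytes, 1:1 model fitted, double-referenced sensograms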
# human C2 D454A = biological target: T1, human C2 D454A (human, UniProt P06681 21-752)
# T1 sequence: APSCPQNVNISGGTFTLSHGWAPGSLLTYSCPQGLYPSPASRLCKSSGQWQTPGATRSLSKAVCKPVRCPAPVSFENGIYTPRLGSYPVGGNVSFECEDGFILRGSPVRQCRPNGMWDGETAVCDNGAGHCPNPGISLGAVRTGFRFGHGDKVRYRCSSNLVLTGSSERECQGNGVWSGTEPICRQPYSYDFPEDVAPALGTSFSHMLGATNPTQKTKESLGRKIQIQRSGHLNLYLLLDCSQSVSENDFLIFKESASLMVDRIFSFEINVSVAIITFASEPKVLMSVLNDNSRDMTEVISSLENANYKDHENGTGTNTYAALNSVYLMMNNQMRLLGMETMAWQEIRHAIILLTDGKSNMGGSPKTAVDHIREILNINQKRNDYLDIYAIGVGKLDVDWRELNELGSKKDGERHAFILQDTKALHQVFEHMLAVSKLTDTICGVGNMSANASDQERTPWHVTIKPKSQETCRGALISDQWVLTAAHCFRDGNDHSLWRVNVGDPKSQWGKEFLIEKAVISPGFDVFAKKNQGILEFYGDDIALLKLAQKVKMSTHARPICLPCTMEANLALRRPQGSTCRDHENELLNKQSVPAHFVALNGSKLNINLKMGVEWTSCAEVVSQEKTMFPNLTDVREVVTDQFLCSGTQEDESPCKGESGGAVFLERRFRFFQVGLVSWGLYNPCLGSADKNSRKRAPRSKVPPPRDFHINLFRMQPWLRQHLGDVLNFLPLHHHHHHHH
# human C2 H435A = biological target: T2, human C2 H435A (human, UniProt P06681 21-752)
# T2 sequence: T1 sequence with H415A, A434D
# human C2 G432A = biological target: T3, human C2 G432A (human, UniProt P06681 21-752)
# T3 sequence: T1 sequence with G412A, A434D
# human C2 D441A = biological target: T4, human C2 D441A (human, UniProt P06681 21-752)
# T4 sequence: T1 sequence with D421A, A434D
binder,measurement,setting,value
B1,Fold diff,human C2 D454A,25 fold
same,Fold diff,human C2 H435A,2 fold
same,Fold diff,human C2 G432A,1 fold
same,Fold diff,human C2 D441A,6 fold
